From ChEMBL document CHEMBL1212722, “Designer enzymes for glycosphingolipid synthesis by directed evolution” (Nat Chem Biol, 2009) come the findings set out here.

Substrate in data set [1]: CC(=O)N[C@H]1[C@H](O[C@@H]2[C@H](O[C@]3(C(=O)O)C[C@H](O)[C@@H](NC(C)=O)[C@H]([C@@H](O)[C@@H](O)CO)O3)[C@@H](O)[C@H](O[C@H]3[C@H](O)[C@@H](O)[C@@H](F)O[C@@H]3CO)O[C@@H]2CO)O[C@H](CO)[C@H](O)[C@@H]1O[C@@H]1O[C@H](CO)[C@H](O)[C@H](O)[C@H]1O
The data set is described as follows: (§1) Activity of Rhodococcus sp. M777 Endoglycoceramidase 2 R177H mutant.

Substrate in data set [2]: CCCCCCCCCCCCC/C=C/[C@@H](O)[C@@H](N)CO
Described as §1.

Substrate in data set [3]: CC(=O)N[C@H]1[C@H](O[C@@H]2[C@H](O[C@]3(C(=O)O)C[C@H](O)[C@@H](NC(C)=O)[C@H]([C@@H](O)[C@@H](O)CO)O3)[C@@H](O)[C@H](O[C@H]3[C@H](O)[C@@H](O)[C@@H](F)O[C@@H]3CO)O[C@@H]2CO)O[C@H](CO)[C@H](O)[C@@H]1O[C@@H]1O[C@H](CO)[C@H](O)[C@H](O)[C@H]1O
In words: (§2) Ratio of Kcat to Km of Activity of Rhodococcus sp. M777 Endoglycoceramidase 2 R177H mutant.

Substrate in data set [4]: CCCCCCCCCCCCC/C=C/[C@@H](O)[C@@H](N)CO
The data set is described as §2.

Substrate in data set [5]: CC(=O)N[C@H]1[C@H](O[C@@H]2[C@H](O[C@]3(C(=O)O)C[C@H](O)[C@@H](NC(C)=O)[C@H]([C@@H](O)[C@@H](O)CO)O3)[C@@H](O)[C@H](O[C@H]3[C@H](O)[C@@H](O)[C@@H](F)O[C@@H]3CO)O[C@@H]2CO)O[C@H](CO)[C@H](O)[C@@H]1O[C@@H]1O[C@H](CO)[C@H](O)[C@H](O)[C@H]1O
In words: (§3) Activity of Rhodococcus sp. M777 Endoglycoceramidase 2 A81E mutant.

Substrate in data set [6]: CCCCCCCCCCCCC/C=C/[C@@H](O)[C@@H](N)CO
The data set is described as §3.

Substrate in data set [7]: CC(=O)N[C@H]1[C@H](O[C@@H]2[C@H](O[C@]3(C(=O)O)C[C@H](O)[C@@H](NC(C)=O)[C@H]([C@@H](O)[C@@H](O)CO)O3)[C@@H](O)[C@H](O[C@H]3[C@H](O)[C@@H](O)[C@@H](F)O[C@@H]3CO)O[C@@H]2CO)O[C@H](CO)[C@H](O)[C@@H]1O[C@@H]1O[C@H](CO)[C@H](O)[C@H](O)[C@H]1O
The data set is described as follows: (§4) Ratio of Kcat to Km of Activity of Rhodococcus sp. M777 Endoglycoceramidase 2 A81E mutant.

Substrate in data set [8]: CCCCCCCCCCCCC/C=C/[C@@H](O)[C@@H](N)CO
The data set is described as §4.

Substrate in data set [9]: CC(=O)N[C@H]1[C@H](O[C@@H]2[C@H](O[C@]3(C(=O)O)C[C@H](O)[C@@H](NC(C)=O)[C@H]([C@@H](O)[C@@H](O)CO)O3)[C@@H](O)[C@H](O[C@H]3[C@H](O)[C@@H](O)[C@@H](F)O[C@@H]3CO)O[C@@H]2CO)O[C@H](CO)[C@H](O)[C@@H]1O[C@@H]1O[C@H](CO)[C@H](O)[C@H](O)[C@H]1O
In words: (§5) Activity of Rhodococcus sp. M777 Endoglycoceramidase 2 I183F mutant.

Substrate in data set [10]: CCCCCCCCCCCCC/C=C/[C@@H](O)[C@@H](N)CO
The description is as §5.

Substrate in data set [11]: CC(=O)N[C@H]1[C@H](O[C@@H]2[C@H](O[C@]3(C(=O)O)C[C@H](O)[C@@H](NC(C)=O)[C@H]([C@@H](O)[C@@H](O)CO)O3)[C@@H](O)[C@H](O[C@H]3[C@H](O)[C@@H](O)[C@@H](F)O[C@@H]3CO)O[C@@H]2CO)O[C@H](CO)[C@H](O)[C@@H]1O[C@@H]1O[C@H](CO)[C@H](O)[C@H](O)[C@H]1O
The data set is described as follows: (§6) Ratio of Kcat to Km of Activity of Rhodococcus sp. M777 Endoglycoceramidase 2 I183F mutant.

Substrate in data set [12]: CCCCCCCCCCCCC/C=C/[C@@H](O)[C@@H](N)CO
The data set is described as §6.

Substrate in data set [13]: CC(=O)N[C@H]1[C@H](O[C@@H]2[C@H](O[C@]3(C(=O)O)C[C@H](O)[C@@H](NC(C)=O)[C@H]([C@@H](O)[C@@H](O)CO)O3)[C@@H](O)[C@H](O[C@H]3[C@H](O)[C@@H](O)[C@@H](F)O[C@@H]3CO)O[C@@H]2CO)O[C@H](CO)[C@H](O)[C@@H]1O[C@@H]1O[C@H](CO)[C@H](O)[C@H](O)[C@H]1O
In words: (§7) Activity of Rhodococcus sp. M777 Endoglycoceramidase 2 I276F mutant.

Substrate in data set [14]: CCCCCCCCCCCCC/C=C/[C@@H](O)[C@@H](N)CO
Described as §7.

Substrate in data set [15]: CC(=O)N[C@H]1[C@H](O[C@@H]2[C@H](O[C@]3(C(=O)O)C[C@H](O)[C@@H](NC(C)=O)[C@H]([C@@H](O)[C@@H](O)CO)O3)[C@@H](O)[C@H](O[C@H]3[C@H](O)[C@@H](O)[C@@H](F)O[C@@H]3CO)O[C@@H]2CO)O[C@H](CO)[C@H](O)[C@@H]1O[C@@H]1O[C@H](CO)[C@H](O)[C@H](O)[C@H]1O
The data set is described as follows: (§8) Ratio of Kcat to Km of Activity of Rhodococcus sp. M777 Endoglycoceramidase 2 I276F mutant.

Substrate in data set [16]: CCCCCCCCCCCCC/C=C/[C@@H](O)[C@@H](N)CO
Described as §8.

Substrate in data set [17]: CC(=O)N[C@H]1[C@H](O[C@@H]2[C@H](O[C@]3(C(=O)O)C[C@H](O)[C@@H](NC(C)=O)[C@H]([C@@H](O)[C@@H](O)CO)O3)[C@@H](O)[C@H](O[C@H]3[C@H](O)[C@@H](O)[C@@H](F)O[C@@H]3CO)O[C@@H]2CO)O[C@H](CO)[C@H](O)[C@@H]1O[C@@H]1O[C@H](CO)[C@H](O)[C@H](O)[C@H]1O
The data set is described as follows: (§9) Activity of Rhodococcus sp. M777 Endoglycoceramidase 2 A153T mutant.

Substrate in data set [18]: CCCCCCCCCCCCC/C=C/[C@@H](O)[C@@H](N)CO
Described as §9.

Substrate in data set [19]: CC(=O)N[C@H]1[C@H](O[C@@H]2[C@H](O[C@]3(C(=O)O)C[C@H](O)[C@@H](NC(C)=O)[C@H]([C@@H](O)[C@@H](O)CO)O3)[C@@H](O)[C@H](O[C@H]3[C@H](O)[C@@H](O)[C@@H](F)O[C@@H]3CO)O[C@@H]2CO)O[C@H](CO)[C@H](O)[C@@H]1O[C@@H]1O[C@H](CO)[C@H](O)[C@H](O)[C@H]1O
In words: (§10) Ratio of Kcat to Km of Activity of Rhodococcus sp. M777 Endoglycoceramidase 2 A153T mutant.

Substrate in data set [20]: CCCCCCCCCCCCC/C=C/[C@@H](O)[C@@H](N)CO
Described as §10.

B1: Endoglycoceramidase II (Rhodococcus sp), A0ACD6B832 R177H (protein)
chain: MRRTRLVSLIVTGSLVFGGGVAAAQSSLAASGSGSGSGTALTPSYLKDDDGRSLILRGFNTASSAKSAPDGMPQFTEADLAREYADMGTNFVRFLISWRSVEPAPGVYDQQYLDRVEDRVGWYAERGYKVMLDMHQDVYSGAITPEGNSGNGAGAIGNGAPAWATYMDGLPVEPQPHWELYYIQPGVMRAFDNFWNTTGKHPELVEHYAKAWRAVADRFADNDAVVAYDLMNEPFGGSLQGPAFEAGPLAAMYQRTTDAIRQVDQDTWVCVAPQAIGVNQGLPSGLTKIDDPRAGQQRIAYCPHLYPLPLDIGDGHEGLARTLTDVTIDAWRANTAHTARVLGDVPIILGEFGLDTTLPGARDYIERVYGTAREMGAGVSYWSSDPGPWGPYLPDGTQTLLVDTLNKPYPRAVAGTPTEWSSTSDRLQLTIEPDAAITAPTEIYLPEAGFPGDVHVEGADVVGWDRQSRLLTVRTPADSGNVTVTVTPAA
For B1, the results for the Km in data set [1] and in data set [2] were 320 µM and 170 µM, respectively. Also, the kcat in data set [1] and in data set [2] was 0.06 s⁻¹ throughout. In addition, the kcat/Km (as a rule, the second-order rate constant that governs catalysis at low substrate concentration) came out at 188 M⁻¹ s⁻¹ in data set [3] and 353 M⁻¹ s⁻¹ in [4].

B2: Endoglycoceramidase II (Rhodococcus sp), A0ACD6B832 A81E (protein)
chain: MRRTRLVSLIVTGSLVFGGGVAAAQSSLAASGSGSGSGTALTPSYLKDDDGRSLILRGFNTASSAKSAPDGMPQFTEADLEREYADMGTNFVRFLISWRSVEPAPGVYDQQYLDRVEDRVGWYAERGYKVMLDMHQDVYSGAITPEGNSGNGAGAIGNGAPAWATYMDGLPVEPQPRWELYYIQPGVMRAFDNFWNTTGKHPELVEHYAKAWRAVADRFADNDAVVAYDLMNEPFGGSLQGPAFEAGPLAAMYQRTTDAIRQVDQDTWVCVAPQAIGVNQGLPSGLTKIDDPRAGQQRIAYCPHLYPLPLDIGDGHEGLARTLTDVTIDAWRANTAHTARVLGDVPIILGEFGLDTTLPGARDYIERVYGTAREMGAGVSYWSSDPGPWGPYLPDGTQTLLVDTLNKPYPRAVAGTPTEWSSTSDRLQLTIEPDAAITAPTEIYLPEAGFPGDVHVEGADVVGWDRQSRLLTVRTPADSGNVTVTVTPAA
With B2, the Km (in general, the concentration of substrate that gives half-maximal velocity) in data set [5] is 970 µM; in [6], 200 µM. Further, the kcat in data set [5] and in data set [6] was 0.12 s⁻¹ each time. Further, the kcat/Km is 123 M⁻¹ s⁻¹ in data set [7] and 600 M⁻¹ s⁻¹ in data set [8].

B3: Endoglycoceramidase II (Rhodococcus sp), A0ACD6B832 I183F (protein)
chain: MRRTRLVSLIVTGSLVFGGGVAAAQSSLAASGSGSGSGTALTPSYLKDDDGRSLILRGFNTASSAKSAPDGMPQFTEADLAREYADMGTNFVRFLISWRSVEPAPGVYDQQYLDRVEDRVGWYAERGYKVMLDMHQDVYSGAITPEGNSGNGAGAIGNGAPAWATYMDGLPVEPQPRWELYYFQPGVMRAFDNFWNTTGKHPELVEHYAKAWRAVADRFADNDAVVAYDLMNEPFGGSLQGPAFEAGPLAAMYQRTTDAIRQVDQDTWVCVAPQAIGVNQGLPSGLTKIDDPRAGQQRIAYCPHLYPLPLDIGDGHEGLARTLTDVTIDAWRANTAHTARVLGDVPIILGEFGLDTTLPGARDYIERVYGTAREMGAGVSYWSSDPGPWGPYLPDGTQTLLVDTLNKPYPRAVAGTPTEWSSTSDRLQLTIEPDAAITAPTEIYLPEAGFPGDVHVEGADVVGWDRQSRLLTVRTPADSGNVTVTVTPAA
With B3, the Km in [9] and in data set [10] was 180 µM throughout. In addition, the kcat (commonly the maximal rate divided by the concentration of active sites) came to 0.02 s⁻¹ in data set [9] and 0.09 s⁻¹ in data set [10]. The kcat/Km came out at 135 M⁻¹ s⁻¹ in data set [11] and 527 M⁻¹ s⁻¹ in [12].

B4: Endoglycoceramidase II (Rhodococcus sp), A0ACD6B832 I276F (protein)
chain: MRRTRLVSLIVTGSLVFGGGVAAAQSSLAASGSGSGSGTALTPSYLKDDDGRSLILRGFNTASSAKSAPDGMPQFTEADLAREYADMGTNFVRFLISWRSVEPAPGVYDQQYLDRVEDRVGWYAERGYKVMLDMHQDVYSGAITPEGNSGNGAGAIGNGAPAWATYMDGLPVEPQPRWELYYIQPGVMRAFDNFWNTTGKHPELVEHYAKAWRAVADRFADNDAVVAYDLMNEPFGGSLQGPAFEAGPLAAMYQRTTDAIRQVDQDTWVCVAPQAFGVNQGLPSGLTKIDDPRAGQQRIAYCPHLYPLPLDIGDGHEGLARTLTDVTIDAWRANTAHTARVLGDVPIILGEFGLDTTLPGARDYIERVYGTAREMGAGVSYWSSDPGPWGPYLPDGTQTLLVDTLNKPYPRAVAGTPTEWSSTSDRLQLTIEPDAAITAPTEIYLPEAGFPGDVHVEGADVVGWDRQSRLLTVRTPADSGNVTVTVTPAA
For B4, the Km in [13] turned out to be 1300 µM; in [14], 130 µM. The kcat in [13] and in [14] was 0.11 s⁻¹ each time. The kcat/Km in [15] is 86 M⁻¹ s⁻¹; in data set [16] it was 846 M⁻¹ s⁻¹.

B5: Endoglycoceramidase II (Rhodococcus sp), A0ACD6B832 A153T (protein)
chain: MRRTRLVSLIVTGSLVFGGGVAAAQSSLAASGSGSGSGTALTPSYLKDDDGRSLILRGFNTASSAKSAPDGMPQFTEADLAREYADMGTNFVRFLISWRSVEPAPGVYDQQYLDRVEDRVGWYAERGYKVMLDMHQDVYSGAITPEGNSGNGTGAIGNGAPAWATYMDGLPVEPQPRWELYYIQPGVMRAFDNFWNTTGKHPELVEHYAKAWRAVADRFADNDAVVAYDLMNEPFGGSLQGPAFEAGPLAAMYQRTTDAIRQVDQDTWVCVAPQAIGVNQGLPSGLTKIDDPRAGQQRIAYCPHLYPLPLDIGDGHEGLARTLTDVTIDAWRANTAHTARVLGDVPIILGEFGLDTTLPGARDYIERVYGTAREMGAGVSYWSSDPGPWGPYLPDGTQTLLVDTLNKPYPRAVAGTPTEWSSTSDRLQLTIEPDAAITAPTEIYLPEAGFPGDVHVEGADVVGWDRQSRLLTVRTPADSGNVTVTVTPAA
Consider B5, for which the figures for the Km in [17] and in data set [18] were 420 µM and 460 µM, respectively. The kcat is 0.17 s⁻¹ in data set [17] and 0.2 s⁻¹ in data set [18]. For the same protein, the kcat/Km in data set [19] amounted to 405 M⁻¹ s⁻¹; in data set [20] it was 435 M⁻¹ s⁻¹.
